pKd: −log10 of the molar value.
Experiments:
[1] = molecular target: HLA-C*12:03; assay: IEDB peptide-MHC binding, purified MHC/direct/fluorescence; filed as Kd, often an IC50 or EC50 that approximates it; ≥ and ≤ were set here for values at or beyond the usual limits of such assays; settings: source organism: Bacillus anthracis str. A0488
[2] = molecular target: HLA-B*40:01; assay: IEDB peptide-MHC binding, purified MHC/competitive/fluorescence; filed as Kd, often an IC50 or EC50 that approximates it; ≥ and ≤ were set here for values at or beyond the usual limits of such assays; settings: source organism: Bacillus anthracis str. A0488
[3] = molecular target: HLA-B*15:01; assay: as above; settings: source organism: Bacillus anthracis str. A0488
[4] = molecular target: HLA-A*68:02; assay: as above
[5] = molecular target: HLA-B*44:02; assay: as above; settings: source organism: Bacillus anthracis str. A0488
[6] = molecular target: HLA-B*39:01; assay: as above; settings: source organism: Bacillus anthracis str. A0488
[7] = molecular target: HLA-B*27:03; assay: as above; settings: source organism: Bacillus anthracis str. A0488
[8] = molecular target: HLA-A*02:01; assay: as above; settings: source organism: Bacillus anthracis str. A0488
[9] = molecular target: HLA-A*01:01; assay: as above
[10] = molecular target: HLA-B*57:01; assay: as above
[11] = molecular target: HLA-A*26:01; assay: as above
[12] = molecular target: HLA-A*30:01; assay: as above; settings: source organism: Bacillus anthracis str. A0488
[13] = molecular target: HLA-B*18:01; assay: as above; settings: source organism: Bacillus anthracis str. A0488
[14] = molecular target: HLA-B*58:01; assay: as above; settings: source organism: Bacillus anthracis str. A0488
[15] = molecular target: HLA-B*46:01; assay: as above; settings: source organism: Bacillus anthracis str. A0488
[16] = molecular target: HLA-B*53:01; assay: as above; settings: source organism: Bacillus anthracis str. A0488
[17] = molecular target: HLA-B*27:05; assay: as above; settings: source organism: Bacillus anthracis str. A0488
[18] = molecular target: HLA-A*30:02; assay: as above; settings: source organism: Bacillus anthracis str. A0488
[19] = molecular target: HLA-B*07:02; assay: as above
[20] = molecular target: HLA-A*66:01; assay: as above; settings: source organism: Bacillus anthracis str. A0488
[21] = molecular target: HLA-B*51:01; assay: as above; settings: source organism: Bacillus anthracis str. A0488
[22] = molecular target: HLA-A*11:01; assay: as above; settings: source organism: Bacillus anthracis str. A0488
[23] = molecular target: HLA-A*24:03; assay: as above; settings: source organism: Bacillus anthracis str. A0488
[24] = molecular target: HLA-A*29:02; assay: as above; settings: source organism: Bacillus anthracis str. A0488
[25] = molecular target: HLA-A*03:01; assay: as above; settings: source organism: Bacillus anthracis str. A0488
[26] = molecular target: HLA-B*14:02; assay: as above; settings: source organism: Bacillus anthracis str. A0488
[27] = molecular target: HLA-B*08:01; assay: as above; settings: source organism: Bacillus anthracis str. A0488
[28] = molecular target: HLA-A*30:01; assay: IEDB peptide-MHC binding, purified MHC/direct/fluorescence; filed as Kd, often an IC50 or EC50 that approximates it; ≥ and ≤ were set here for values at or beyond the usual limits of such assays; settings: source organism: Variola virus
[29] = molecular target: HLA-A*80:01; assay: as above; settings: source organism: Camelpox virus M-96
[30] = molecular target: HLA-B*40:01; assay: as above; settings: source organism: Mycobacterium tuberculosis
[31] = molecular target: HLA-A*31:01; assay: as above; settings: source organism: Mycobacterium tuberculosis
[32] = molecular target: HLA-A*02:01; assay: as above; settings: source organism: Mycobacterium tuberculosis
[33] = molecular target: HLA-B*58:01; assay: as above; settings: source organism: Mycobacterium tuberculosis
[34] = molecular target: HLA-B*27:05; assay: as above; settings: source organism: Mycobacterium tuberculosis
[35] = molecular target: HLA-B*07:02; assay: as above; settings: source organism: Mycobacterium tuberculosis
[36] = molecular target: HLA-A*11:01; assay: as above; settings: source organism: Mycobacterium tuberculosis
[37] = molecular target: HLA-B*48:01; assay: as above; settings: source organism: Mycobacterium tuberculosis
[38] = molecular target: HLA-A*69:01; assay: IEDB peptide-MHC binding, purified MHC/competitive/fluorescence; filed as Kd, often an IC50 or EC50 that approximates it; ≥ and ≤ were set here for values at or beyond the usual limits of such assays; settings: source organism: Mycobacterium tuberculosis C
[39] = molecular target: HLA-A*26:02; assay: as above; settings: source organism: Mycobacterium tuberculosis C
[40] = molecular target: HLA-A*26:03; assay: as above; settings: source organism: Mycobacterium tuberculosis C
[41] = molecular target: HLA-B*35:01; assay: as above; settings: source organism: Mycobacterium tuberculosis C
[42] = molecular target: HLA-B*15:17; assay: as above; settings: source organism: Mycobacterium tuberculosis C
[43] = molecular target: HLA-B*15:01; assay: IEDB peptide-MHC binding, purified MHC/direct/fluorescence; filed as Kd, often an IC50 or EC50 that approximates it; ≥ and ≤ were set here for values at or beyond the usual limits of such assays; settings: source organism: Yellow fever virus
[44] = molecular target: HLA-B*46:01; assay: as above; settings: source organism: Yellow fever virus
[45] = molecular target: HLA-A*26:02; assay: as above; settings: source organism: Yellow fever virus
[46] = molecular target: HLA-B*45:06; assay: IEDB peptide-MHC binding, purified MHC/competitive/fluorescence; filed as Kd, often an IC50 or EC50 that approximates it; ≥ and ≤ were set here for values at or beyond the usual limits of such assays; settings: source organism: Influenza A virus (A/swine/Hannover/1/1981(H1N1))
[47] = molecular target: HLA-B*15:42; assay: as above; settings: source organism: Influenza A virus (A/swine/Hannover/1/1981(H1N1))
[48] = molecular target: HLA-B*83:01; assay: as above; settings: source organism: Influenza A virus (A/swine/Hannover/1/1981(H1N1))
[49] = molecular target: HLA-C*14:02; assay: as above; settings: source organism: Influenza A virus (A/swine/Hannover/1/1981(H1N1))
[50] = molecular target: HLA-B*27:20; assay: as above; settings: source organism: Influenza A virus (A/swine/Hannover/1/1981(H1N1))
[51] = source organism: Bacillus anthracis str. A0488
[52] = source organism: Mycobacterium tuberculosis C

FVMPIFEQI
pKd [1]: 7.17 | pKd [2]: ≤ 5.30 | pKd [3]: ≤ 4.70 | pKd [4, 51]: 9.52 | pKd [5]: ≤ 5.30 | pKd [6]: ≤ 4.70 | pKd [7]: ≤ 4.70 | pKd [8]: ≤ 5.30 | pKd [9, 51]: ≤ 5.30 | pKd [10, 51]: ≤ 4.70 | pKd [11, 51]: ≤ 4.70 | pKd [12]: ≤ 5.30 | pKd [13]: ≤ 4.70 | pKd [14]: ≤ 5.30 | pKd [15]: ≤ 4.70 | pKd [16]: ≤ 5.30 | pKd [17]: ≤ 5.30 | pKd [18]: ≤ 5.30 | pKd [19, 51]: ≤ 5.30 | pKd [20]: ≤ 5.30 | pKd [21]: ≤ 4.70 | pKd [22]: ≤ 5.30 | pKd [23]: 8.49 | pKd [24]: ≤ 5.30 | pKd [25]: ≤ 4.70 | pKd [26]: ≤ 5.30 | pKd [27]: ≤ 5.30

ITYLMNRFK
pKd [28]: ≥ 9.00 | pKd [29]: ≤ 4.70

LTFLDCLYY
pKd [30]: ≤ 4.70 | pKd [31]: ≤ 4.70 | pKd [32]: ≤ 4.70 | pKd [33]: 6.84 | pKd [34]: ≤ 4.70 | pKd [35]: ≤ 4.70 | pKd [36]: 7.13 | pKd [37]: ≤ 4.70 | pKd [4, 52]: ≤ 4.70 | pKd [38]: ≤ 4.70 | pKd [9, 52]: 8.40 | pKd [10, 52]: 6.73 | pKd [11, 52]: 6.96 | pKd [39]: ≤ 4.70 | pKd [40]: ≤ 4.70 | pKd [41]: 7.15 | pKd [42]: 9.30

LVLAVGPAY
pKd [43]: 7.27 | pKd [44]: ≤ 4.70 | pKd [45]: 6.26

RRRFVQNAL
pKd [46]: ≤ 5.30 | pKd [47]: ≤ 5.30 | pKd [48]: ≤ 5.30 | pKd [49]: 6.68 | pKd ([19]; source organism: Influenza A virus (A/swine/Hannover/1/1981(H1N1))): ≤ 4.70 | pKd [50]: 8.89
